These results are taken from patent US10428140B2, “Anti-EphA4 antibody” (EISAI R&D MANAGEMENT CO., LTD., priority 2015, dated 2019).

As usually defined, the Kd is the concentration at which binding is half-saturated. The IC50 is the concentration needed to halve the response being measured. Higher therefore signals weaker potency in that assay.

The target in one experiment is T1, human EphA4 (Homo sapiens, UniProt P54764).
T1 construct: made in house; not restated for the human SEAP-His protein
T1 sequence (P54764 20-547): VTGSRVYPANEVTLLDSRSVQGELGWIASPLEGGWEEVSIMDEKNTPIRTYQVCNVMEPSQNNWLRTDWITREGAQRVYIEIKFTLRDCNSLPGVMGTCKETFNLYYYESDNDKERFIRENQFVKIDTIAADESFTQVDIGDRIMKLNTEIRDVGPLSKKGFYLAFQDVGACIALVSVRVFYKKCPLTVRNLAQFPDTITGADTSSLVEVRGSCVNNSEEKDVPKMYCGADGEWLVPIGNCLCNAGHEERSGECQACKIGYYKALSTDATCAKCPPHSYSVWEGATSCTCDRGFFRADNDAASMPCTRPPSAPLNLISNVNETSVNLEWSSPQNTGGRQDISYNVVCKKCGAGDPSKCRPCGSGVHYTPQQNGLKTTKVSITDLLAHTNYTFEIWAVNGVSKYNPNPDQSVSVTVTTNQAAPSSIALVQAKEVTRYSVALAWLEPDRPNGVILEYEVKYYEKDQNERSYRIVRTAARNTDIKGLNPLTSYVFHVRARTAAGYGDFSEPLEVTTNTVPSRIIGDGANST
The experiment in a line: Affinity of humanized antibodies by SPR (Biacore T200). The experiment is classed as binding. The following applies: human EphA4 extracellular region-SEAP-His; for ka / kd: 1:1 binding model; for Kd: KD=kd/ka. Here is the method: The binding affinity of each anti-EphA4 monoclonal humanized antibody obtained in Example 16 for human EphA4 was determined by surface plasmon resonance (SPR) using Biacore T200 (GE Healthcare). First, for the assay of antibody A, a rat anti-mouse IgG1 antibody produced with a conventional method by immunizing rat with mouse IgG1 antibody was immobilized on sensor chip CM5. The immobilization of the rat anti-mouse IgG1 antibody on sensor chip CM5 was performed by the amine coupling method using N-hydroxysuccinimide (NHS) and N-ethyl-N′-(3-dimethylaminopropyl)carbodiimide hydrochloride (EDC). Ethanolamine was used in blocking (the sensor chip and the reagents for immobilization were all manufactured by GE Healthcare). The antibody was diluted with a buffer solution for immobilization (10 mM sodium acetate, pH 4.5) and immobilized on the sensor chip according to the protocol attached to Biacore T200. For the assay of each humanized monoclonal antibody, a protein A chip (GE Healthcare, 29-1383-03) was used. Antibody A or the humanized monoclonal antibody was diluted with a running buffer solution HBS-EP (GE Healthcare), injected onto only flow cell 2 for 120 seconds, and captured (captured amount: approximately 30 to 60 RU). Subsequently, human EphA4 extracellular region-SEAP-His protein serially diluted in the range of 50, 16.7, 5.6, 1.9, and 0.6 nM using HBS-EP was sequentially added from the lower toward higher concentration sides without regeneration operation. Binding reaction curves were sequentially observed at the time of the addition (association phase, for 120 sec) and after the completion of the addition (dissociation phase, for 900 sec). After the completion of each observation, the sensor chip was regenerated by the addition of 3 M MgCl2 (for 60 sec) or 10 mM Glycine-HCl pH 1.5 (for 30 sec). The obtained binding reaction curves were subjected to fitting analysis with 1:1 binding models using software BIA evaluation attached to the system to calculate the affinity (KD=kd/ka) for human EphA4 (Table 6).
(Surface plasmon resonance follows binding to a sensor surface in real time, without labels.)

For experiment [1], the target named is T2, human EphA4 (binding to human Ephrin A5) (Homo sapiens, UniProt P54764).
T2 construct: made in house; not restated for the human SEAP-His protein
T2 sequence (P54764 20-547): as above
As to the kind of experiment: Human EphA4-human ligand binding inhibition ELISA of humanized antibodies (biotinylated Ephrin A5-Fc). The following applies: biotinylated human Ephrin A5-Fc 0.7 nM. As for the experimental part:
Each anti-EphA4 monoclonal humanized antibody obtained in Example 16 was evaluated for its inhibitory activity against the binding between human EphA4 and its human ligand according to the following steps. Each well of a 96-well plate (Nunc) was coated with an anti-alkaline phosphatase antibody (Thermo Fisher Scientific). After incubation overnight at 4° C., each well was blocked with 1% BlockAce (DS Pharma Biomedical) at room temperature for 1 hour. After washing with 0.05% Tween 20/PBS (Thermo Fisher Scientific) three times, the human EphA4 extracellular region-SEAP-His protein obtained by the method of Example 2 was added (final concentration: 10 nM) to each well and incubated at room temperature for 1 hour. After washing three times, a ligand and each serially diluted humanized antibody of antibody A (0, 0.003, 0.01, 0.03, 0.1, 0.3, 1, 3, 10, 30, 100, 300, 1000, and 3000 nM) were added to each well. The ligand used was biotinylated human Ephrin A5-Fc chimera (R&D Systems, final concentration: 0.7 nM). After incubation at room temperature for 1 hour and subsequent washing three times, horseradish peroxidase-labeled streptavidin (GE Healthcare) was added thereto and incubated at room temperature for 1 hour. After washing three times, a TMBZ (3,3′,5,5′-tetramethylbenzidine, Sigma-Aldrich) solution was added to each well and incubated at room temperature for 2 minutes. An equal amount of a reaction stopping solution (1N H2SO4, Wako Pure Chemical Industries) was added to each well. The absorbance at 450 nm was read using a microplate reader (PerkinElmer).

B1: 89 (antibody, V domains shown)
VL: DIQMTQSPSSLSASVGDRVTITCRASENIYRNLAWYQQKPGKAPQLLLYAATNLADGVPSRFSGSGSGTDYTLTISSLQPEDFATYYCQHFWGTPWTFGQGTKVEIK
VH: QIQLVQSGSELKKPGASVKVSCKASGYTFTDYSMHWVRQAPGQGLKWMGWINTETGEPTYAQGFTGRFVFSLDTSVSTAYLQISSLKAEDTAVYYCARIPLYYYGSRYWYFDVWGQGTTVTVSS
modifications: constant regions without entry; synthetic humanized antibody light chain variable region sequence; synthetic humanized antibody heavy chain variable region sequence
For the molecule B1, in the experiment with human EphA4, the ka is 310000 M⁻¹ s⁻¹, the kd worked out at 0.00041 s⁻¹ and the dissociation constant Kd is 1.3 nM. The molecule further had an IC50 in experiment [1] of 4.3 nM.

B2: 91 (antibody, V domains shown)
VL: DIQMTQSPSSLSASVGDRVTITCRASENIYRNLAWYQQKPGKAPQLLLYAATNLADGVPSRFSGSGSGTDYTLTISSLQPEDFATYYCQHFWGTPWTFGQGTKVEIK
VH: QVQLVQSGSELKKPGASVKVSCKASGYTFTDYSMHWVRQAPGQGLKWMGWINTETGEPTYADDFKGRFVFSLDTSVSTAYLQISSLKAEDTAVYYCARIPLYYYGSRYWYFDVWGQGTTVTVSS
modifications: constant regions without entry; synthetic humanized antibody light chain variable region sequence; synthetic humanized antibody heavy chain variable region sequence
In the experiment with human EphA4, B2 gave a ka of 330000 M⁻¹ s⁻¹, a kd of 0.00044 s⁻¹ and a Kd of 1.3 nM. Further, the IC50 in experiment [1] came out at 4.9 nM.

B3: 90 (antibody, V domains shown)
VL: DIQMTQSPSSLSASVGDRVTITCRASENIYRNLAWYQQKPGKAPQLLLYAATNLADGVPSRFSGSGSGTDYTLTISSLQPEDFATYYCQHFWGTPWTFGQGTKVEIK
VH: QVQLVQSGSELKKPGASVKVSCKASGYTFTDYSMHWVRQAPGQGLEWMGWINTETGEPTYADDFKGRFVFSLDTSVSTAYLQISSLKAEDTAVYYCARIPLYYYGSRYWYFDVWGQGTTVTVSS
modifications: constant regions without entry; synthetic humanized antibody light chain variable region sequence; synthetic humanized antibody heavy chain variable region sequence
In the experiment with human EphA4, B3 displayed a ka of 360000 M⁻¹ s⁻¹, a kd of 0.00055 s⁻¹ and a Kd of 1.5 nM. This molecule gave an IC50 in experiment [1] of 4.5 nM.

B4: 94 (antibody, V domains shown)
VL: EIVMTQSPATLSVSPGERATLSCRASENIYRNLAWYQQKPGQSPRLLIYAATNLADGIPARFSGSGSGTEYTLTISSLQSEDFAVYYCQHFWGTPWTFGQGTKVEIK
VH: QVQLVQSGSELKKPGASVKVSCKASGYTFTDYSMHWVRQAPGQGLKWMGWINTETGEPTYAQGFTGRFVFSLDTSVSTAYLQISSLKAEDTAVYYCARIPLYYYGSRYWYFDVWGQGTTVTVSS
modifications: constant regions without entry; synthetic humanized antibody light chain variable region sequence; synthetic humanized antibody heavy chain variable region sequence
In the experiment with human EphA4, B4 displayed a ka of 260000 M⁻¹ s⁻¹, a kd of 0.00024 s⁻¹ and a Kd of 0.95 nM. In experiment [1], the IC50 was 2.7 nM.

B5: 96 (antibody, V domains shown)
VL: EIVMTQSPATLSVSPGERATLSCRASENIYRNLAWYQQKPGQSPRLLIYAATNLADGIPARFSGSGSGTEYTLTISSLQSEDFAVYYCQHFWGTPWTFGQGTKVEIK
VH: QVQLVQSGSELKKPGASVKVSCKASGYTFTDYSMHWVRQAPGQGLKWMGWINTETGEPTYADDFKGRFVFSLDTSVSTAYLQISSLKAEDTAVYYCARIPLYYYGSRYWYFDVWGQGTTVTVSS
modifications: constant regions without entry; synthetic humanized antibody light chain variable region sequence; synthetic humanized antibody heavy chain variable region sequence
For B5, in the experiment with human EphA4, the ka came out at 270000 M⁻¹ s⁻¹, the kd came to 0.00031 s⁻¹ and the Kd came out at 1.1 nM. The same molecule gave an IC50 in experiment [1] of 3.7 nM.

B6: 93 (antibody, V domains shown)
VL: EIVMTQSPATLSVSPGERATLSCRASENIYRNLAWYQQKPGQSPRLLIYAATNLADGIPARFSGSGSGTEYTLTISSLQSEDFAVYYCQHFWGTPWTFGQGTKVEIK
VH: QVQLVQSGSELKKPGASVKVSCKASGYTFTDYSMHWVRQAPGQGLEWMGWINTETGEPTYAQGFTGRFVFSLDTSVSTAYLQISSLKAEDTAVYYCARIPLYYYGSRYWYFDVWGQGTTVTVSS
modifications: constant regions without entry; synthetic humanized antibody light chain variable region sequence; synthetic humanized antibody heavy chain variable region sequence
In the experiment with human EphA4, B6 had a ka of 310000 M⁻¹ s⁻¹, a kd of 0.00024 s⁻¹ and an equilibrium dissociation constant (Kd) of 0.77 nM. The IC50 in experiment [1] turned out to be 2.5 nM.

B7: 95 (antibody, V domains shown)
VL: EIVMTQSPATLSVSPGERATLSCRASENIYRNLAWYQQKPGQSPRLLIYAATNLADGIPARFSGSGSGTEYTLTISSLQSEDFAVYYCQHFWGTPWTFGQGTKVEIK
VH: QVQLVQSGSELKKPGASVKVSCKASGYTFTDYSMHWVRQAPGQGLEWMGWINTETGEPTYADDFKGRFVFSLDTSVSTAYLQISSLKAEDTAVYYCARIPLYYYGSRYWYFDVWGQGTTVTVSS
modifications: constant regions without entry; synthetic humanized antibody light chain variable region sequence; synthetic humanized antibody heavy chain variable region sequence
In the experiment with human EphA4, B7 returned a ka of 300000 M⁻¹ s⁻¹, a kd of 0.00031 s⁻¹ and a Kd of 1 nM. Moreover, in experiment [1], the IC50 came out at 3.1 nM.

B8: 92 (antibody, V domains shown)
VL: DIQMTQSPSSLSASVGDRVTITCRASENIYRNLAWYQQKPGKAPQLLLYAATNLADGVPSRFSGSGSGTDYTLTISSLQPEDFATYYCQHFWGTPWTFGQGTKVEIK
VH: QIQLVQSGSELKKPGASVKVSCKASGYTFTDYSMHWVRQAPGQGLKWMGWINTETGEPTYADDFKGRFVFSLDTSVSTAYLQISSLKAEDTAVYYCARIPLYYYGSRYWYFDVWGQGTTVTVSS
modifications: constant regions without entry; synthetic humanized antibody light chain variable region sequence; synthetic humanized antibody heavy chain variable region sequence
In the experiment with human EphA4, B8 registered a ka of 330000 M⁻¹ s⁻¹, a kd of 0.00043 s⁻¹ and a Kd of 1.3 nM. The same molecule displayed a half-inhibitory concentration (IC50) in experiment [1] of 3.5 nM.

B9: 71 (antibody, V domains shown)
VH: QIQLVQSGSELKKPGASVKVSCKASGYTFTDYSMHWVRQAPGQGLKWMGWINTETGEPTYAQGFTGRFVFSLDTSVSTAYLQISSLKAEDTAVYYCARIPLYYYGSRYWYFDVWGQGTTVTVSS
VL: EIVMTQSPATLSVSPGERATLSCRASENIYRNLAWYQQKPGQSPRLLIYAATNLADGIPARFSGSGSGTEYTLTISSLQSEDFAVYYCQHFWGTPWTFGQGTKVEIK
modifications: synthetic humanized antibody heavy chain variable region sequence; synthetic humanized antibody light chain variable region sequence
In the experiment with human EphA4, B9 gave a ka of 280000 M⁻¹ s⁻¹, a kd of 0.00023 s⁻¹ and a Kd of 0.82 nM. The same molecule displayed an IC50 in experiment [1] of 2.5 nM.
